From publication PMC10179609
Where two headings read alike, the source gives them in different places.

What was measured:
[1] = viscometry; falling ball micro viscometer, 20 °C, Tpm 1.0 mg/mL (15 µM), 30 mM HEPES-Na pH 7.3, 100 mM NaCl, 4 mM DTT; end-to-end (N- and C-ends) interaction of Tpm dimers; settings: other: viscometry
[2] = target: F-actin (skeletal rabbit muscle actin) (rabbit) (UniProt P68135); assay: co-sedimentation; with 1.5 μM TnT1 (fragment of human cardiac troponin T); 10 μM F-actin, Tpm 0 to 7.5 μM, 20 °C, 30 mM HEPES-Na pH 7.3, 255 mM NaCl; 100,000 g 40 min, SDS-PAGE of pellet and supernatant
[3] = target: α-chain of tropomyosin (αTpm, Tpm 1.1), single chain (human); assay: cross-linking; ααTpm, κκTpm or their equimolar mixture heated to 70 °C, cooled, dimers cross-linked at SH groups with DTNB; SDS-PAGE without β-mercaptoethanol
[4] = target: F-actin (skeletal rabbit muscle actin) (rabbit) (UniProt P68135); assay: light scattering on heating; 20 μM phalloidin-stabilized F-actin, 10.5 μM Tpm, 30 mM HEPES-Na pH 7.3, 100 mM NaCl; 350 nm, heating 1 °C/min; Tdiss is the temperature of a 50% decrease in light scattering
[5] = target: F-actin (skeletal rabbit muscle actin) (rabbit) (UniProt P68135)
[6] = target: F-actin (skeletal rabbit muscle actin) (rabbit) (UniProt P68135); assay: co-sedimentation; without TnT1; 10 μM F-actin, Tpm 0 to 7.5 μM, 20 °C, 30 mM HEPES-Na pH 7.3, 200 mM NaCl; 100,000 g 40 min, SDS-PAGE of pellet and supernatant
[7] = target: F-actin (skeletal rabbit muscle actin) (rabbit) (UniProt P68135); assay: as above; remark: listed apart in the source

Substance	viscosity of the Tpm solution [1] [mPa·s]	K50% with TnT1 (Tpm concentration at half-saturation of F-actin) [2] [µM]	Tdiss (temperature of 50% dissociation of the complex with F-actin) [4] [°C]	reduction of the sliding velocity of F-actin (2.2 µm/s) in the in vitro motility assay [5] [%]	K50% (Tpm concentration at half-saturation of F-actin) [7] [µM]	further results
κκTpm homodimer (kappa-tropomyosin, Tpm 1.2)	0.09 ± 0.01					
ααTpm homodimer (alpha-tropomyosin, Tpm 1.1)	0.41 ± 0.04					
ακTpm heterodimer (complex)		0.71				
κ-chain of tropomyosin (κTpm, Tpm 1.2), single chain (natural protein)						share of heterodimers among the dimers formed from an equimolar mixture [3]: < 90%
κκTpm homodimer (kappa-tropomyosin, Tpm 1.2) (natural protein)		0.88	42.1	30	1.29	K50% (Tpm concentration at half-saturation of F-actin) [6]: 2.37 µM
ααTpm homodimer (alpha-tropomyosin, Tpm 1.1) (natural protein)			45.9	50	1.23	
